Assay [1] addresses Biotin-ahx-SDC4cyt (human, rat and mouse (identical)). Nature of the assay: SPR; Biacore X100; biotin-ahx-SDC4cyt immobilised on SA chip at 100-200 RU; parvin as analyte 26.5-277.7 nM in Hepes pH 7.4, 150 mM NaCl, 3 mM EDTA, 0.005% Surfactant P20; 30 µL/min, 180 s association, 600 s dissociation; 1:1 Langmuir model. Background: In SPR one partner is held on a chip, and binding of the other changes the refractive index at the surface.

Assay [2] concerns FL β-parvin 20′mer overlapping peptides. In words: Peptide overlay: 20-mer β-parvin peptides overlaid with recombinant ILK (S343D). Particulars: peptide array, O/N, 4°C, ILK antibodies, n = 4 membranes. The assay is classed as binding, rat. The source says:
Full-length (FL) recombinant human C-Myc/DDK-β-parvin was obtained from OriGene (TP308490, Rockville, MD, United States). Recombinant rat 8xHIS-β-parvin (85% purity), rat 8xHIS-α-parvin (85% purity), and mouse 8xHIS-ILK (S343D) (75% purity) were custom-made by GenScript.
The cytoplasmic tail of syndecan-4 (mouse) or FL β-parvin (rat) protein was synthesized as 20′mer overlapping peptides with 3 amino acids offset onto a cellulose membrane by a Multipep automated peptide synthesizer (CEM Corporation, Matthews, NC, United States) ([Frank and Overwin, 1996]). After membrane blocking, antibodies, or a solution with recombinant protein or biotin-ahx-SDC4 were added and incubated O/N at 4°C. Membranes were developed as described for immunoblotting.

Chain of Biotin-ahx-SDC4cyt (human, rat and mouse (identical)) (P31431 171-198): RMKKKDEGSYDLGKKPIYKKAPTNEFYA

Turning to “Recombinant rat 8xHIS-β-parvin (natural protein)”, in assay [1], the Kd worked out at 11.1 nM, the koff was found to be 8.6e-05 s⁻¹ and the kon is 10000 M⁻¹ s⁻¹.

B1: ILK (S343D): Recombinant mouse 8xHIS-ILK (S343D), custom-made by GenScript (protein)
chain: MDDIFTQCREGNAVAVRLWLDNTENDLNQGDDHGFSPLHWACREGRSAVVEMLIMRGARINVMNRGDDTPLHLAASHGHRDIVQKLLQYKADINAVNEHGNVPLHYACFWGQDQVAEDLVANGALVSICNKYGEMPVDKAKAPLRELLRERAEKMGQNLNRIPYKDTFWKGTTRTRPRNGTLNKHSGIDFKQLNFLAKLNENHSGELWKGRWQGNDIVVKVLKVRDWSTRKSRDFNEECPRLRIFSHPNVLPVLGACQAPPAPHPTLITHWMPYGSLYNVLHEGTNFVVDQSQAVKFALDMARGMAFLHTLEPLIPRHALNSRSVMIDEDMTARISMADVKFDFQCPGRMYAPAWVAPEALQKKPEDTNRRSADMWSFAVLLWELVTREVPFADLSNMEIGMKVALEGLRPTIPPGISPHVCKLMKICMNEDPAKRPKFDMIVPILEKMQDK
modifications: left off: 8xHIS, end not stated, state not stated
notes: Recombinant mouse 8xHIS-ILK (S343D), custom-made by GenScript
In the case of B1, the “ILK binding site in β-parvin (CH2 domain)” value in assay [2] is “bound a few amino acids upstream of the syndecan-4 core binding site”.

As usually defined, the Kd is the constant that tells how readily two partners part at equilibrium. Low values mean a tighter complex, high ones a looser complex. One may read the koff as the rate constant with which the complex falls apart. The term kon denotes the second-order rate constant of association. The low end stands for slower complex formation, the high end for faster complex formation.

The record behind these values is paper PMC12447578, “Syndecan-4 interacts directly with β-parvin and regulates the ILK-PINCH-β-parvin complex, the β-parvin-β-PIX-Rac1 axis, and cardiomyocyte geometry in a sex-dependent manner” (Frontiers in Cell and Developmental Biology, 2025).
